According to the supplement of paper PMC12636428:

Test system: Saccharomyces cerevisiae
Test: transcriptional activation domain activity (GFP:mCherry ratio, weighted mean of sorted bins, harmonized to initial dataset scale) (arbitrary fluorescence ratio units); higher = stronger transcriptional activation
Settings: beta-estradiol 1 µM; induction time 4 h
Summary of the method: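 After a 1:5 dilution into SC with 1 uM beta-estradiol and 4 hours at 30 °C, yeast diploids carrying a GFP reporter and URA3-integrated barcoded tiles were sorted into 8 bins by GFP:mCherry ratio. The tiles were fused to an estradiol-inducible synthetic transcription factor. Barcodes were sequenced, tiles below 50 reads were discarded, and activation activity was taken as the read-weighted mean of bin median fluorescence, averaged across barcodes and linearly mapped onto the initial dataset scale.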

Sequence	transcriptional activation domain activity
VRLLIRCTRRSLYFWACLCCSWGIILHSLFITLANFNVLQSYGSIVIIHLTWC	74300
VRLVDIFLLKKYYLINLSLAYLSILLFPPPSPRPLYHLFSIYFFFFLFSSASP	45400
VRNNSENASHNNETGPIETELAQTISNEFWTAYNLGWEELMSQPDYKYLFDTQ	117000
VRQQLKIRLIKLFRRFYPYVNFAYYASGLVYNVLYLFNKTKYYSPWLHLIGVQ	52200
VRRLLWVTVIFDICFGMLYVLLAIFQCRPISYYWLGWDGEHQGTCLNVNGLAW	46600
VRRVLLMVPDWFIIFGYRWYRALGLLKTVCPWWTSIINSSSVFYSMLWVDPSV	90900
VRSLTLEIYFNWLQIIFDSKLQDEFSKLLNYNLITKVDLIINLLESIALRFSD	51000
VRSRALLFVFKYYFFLVYFVFYRNLFARLRSFDQFALVQLLSSFWVCIWYPFS	48400
VRSTRRSLYFWSCLTCSWGIIIHLLFILLLNFKIFENYGALVVVHFTWCIYVV	63300
VRTALLKSSHDADIDATVHDQAVREFCSSLNAVTRGVNVLVMTVALLVEIYAA	84400
VRTARQQLMEAAMKTFQLAVGPSEYLPNLALGYQYMACLRWLTHFNIFFHIPL	71400
VRTVIESNRRLNLAVVSKSQRWRCSKIWIPGLLMHVFNFWCIVYMITFNAVWD	49800
VRVLGHDTLYFLTLYLLKAELFFVFFFFLFFRYMLEKRTVIKFTFFFYPCLFE	54700
VRVLNQLKLLLYCTLLSPVYAFKPYRNLYYTFLRKNLLGVVGGYNCAGHNLAI	55500
VRVPDFHHADGRDHVRDGEDGHGDGHVRVHAHAQGGGQGRGLARDRVDAHARE	13200
VRVRVRVQGREQVQVQVRELHPEQGHPHQEQEPLHLAREHHPELHQQKDQEHL	52900
VRVVQLSLSLFIARFVTALVLPFIAIVTKWLVIGRYRPGIFPLWGTYYLRWWF	45000
VRVVVANMFGLVIIFLFFFMYFDDFSKEILNAVQVSQIWMYLHFPLHLCQVAF	50400
VRWIRVRKHIVMAATLAEPFTESIVLVVIGSSSLKYLVGLPRWLCILVHFFLL	35900
VRYHVKNSPISGWVYEAKHVSDILATNTLLARIVIAKVQDEQRLVHLLQCLPI	68800
VRYKGGLVGKHFKSLAQVMPYLIYDLVPRSVLDGWVMIGRLVVLLWHTLIEDT	85100

Sequence	transcriptional activation domain activity
VSAARKRWIAMVWLFTWWIPTYLLVCCGMKRQDIRMAWREKVAICIVIFWISA	56200
VSASVVYLFFIFIFSLSYPILSCPYLLTHSLTLSILPPFSFPLPFFFLSFFLP	58800
VSDYSMAQFRFLLKFLLVHGRWNYVRICKYTVGTFWKELLFYLTQALFQRSNG	46600
VSFDFPRSPYPNGSFESFLRDIFARCNLLEVLVFRTKVKSLRGWLKHYTYFAD	75400
VSFFFFLSFFFPPFFFFSLSFLLSFFLSFLLPFPFFLSFFPFFPGCAAPSRSN	32200
VSFRLLVYALVSHVIFGIVLLIDCFYAFPGWHCSLLAFLINFNILFSASIFFC	55200
VSLLTVIVPIGITCRMVIWICALGMVISSLCVDTILLNKAYKFSFIYIVVRHT	55300
VSLRSLPYEVGFKQNFNLILNHDASLIKTTVRHLLVYCSLIKAIKLCLIFINK	52500
VSMARGKKTFDRETIVIALERLLAVAPLAFQKVKILLALASCHFDFLSSASAY	68200
VSMMQRILNIVCILPSLLERYDTLVALSETSNLGEVERLWIDCHAFLTNLRIW	62400
VSPQIYYGSRLLGSGGLGLYFLRLPSLPCRTVVEILNTFLFFVMISYLQILLY	46400
VSRIRAAVEAQLNHPVNHVLIQHYRSGKDYISEHSDKTIDVVAGSKIVNISIG	37700
VSRLHAKIEYEEEEERFVLVVIGRNGAWVDGVWSGASSRVPLGERSQIQIASR	65500
VSSCCPFPLFLFFSFFLSFFLPFLLSSFLSITQSSWPPFHCPCQDTFPFSLPF	28000
VSSSSSSSSRTRKGGGDDEEVEGKERSATENKKKKLGKKGRIAARTKEKAAAA	6920
VSTCLIKFLALIIEDLHHYFDPFQLKLIGVLVTWYEGAFAKSLFPGELISSEA	52400
VSTMLCYLNYCRTDVTVPTNSNPIFKLDNSLFLRLILLCNINLLLLLPFGLYL	47100
VSVGLLDLLAYCGYGFIGVNATSVVKIFSSDSFWAVYGMFSYTMICLAFFTLR	25800
VSVRQASDGVGCLLEVMAHSRSVNAWTRVLKQLRLAQCVLLNIQQSLSQVWSM	77300
VSVSLIFFTCFLSLSLFFCVLVRVSWLSVPVPSIVFFWISFLLFCPFFPFSFF	35700
VSYVLFVLMHRSTQPLVQHLLFKLRWLPFPFFITKHYYSWIISAYSFIGYRNL	56400

Sequence	transcriptional activation domain activity
VSYVSYVLLFIPFFMLRVFYLSIVTFFLCHIWLHRFGFLVWLWILWCTWGWCN	54800
VTCFGILCFLLSALYLCIGFDPFINQLLYCGVLWLFQGIYFVLFGMKVALHFQ	36200
VTCGLLKVAIDLINHFPLFALVLRVKDPRRLPGSTYFRVIHDKGQTILMLEVD	40300
VTFILALLVRLRRNLPLYSWMHWLHRHIDTLSSYDGISARPAWALFFIRLVWY	74400
VTHHYGNRVGVRWLTNGIKCYYVPFAIIHRNAIFPTVWSLFPILRNILIRERI	63400
VTLVKRVDLFWYFVPNSVCWSCVVERSIALDVAERYLGRETNATPPWIRGLLP	32500
VTQLIRDARRLLTCVRTGFVFYLGTCMALTCLQMISFCTVLPPILTGYQILWV	63000
VTRHHEFLRVHLNEKGEKLLYITHRLDKNGFDVRVFLVAASGFLTDSYILFVT	39700
VTSAKPVQNAGKSRPTSPKPKNVEEREEEKPEVKPVAASPVKATPAPTAAAPV	29000
VTSLATARLPAARPRTAVLPARATSAVRRVTCRANAPRTAVRVTAATVPSATR	45400
VVAAETAPATEEKPAEETKPAEEAAKAEEKKEEEEIKPVEEGHLNHKAQGLSF	49400
VVALVADPEFQRELAYVLCGQSILVRWPAKILNGLWLYCHLLQQAILPWFIFY	52600
VVAYGSGKEEGMKVEGEGEGGKVLRDIIDKLGHALTSTRFAGLPLPHVLAVVK	69700
VVCHFVIMMASMSYKIVICVIIGVHADLMVMDARWRSLGSWLYLLCGVIVAPA	67300
VVCRYYHLMMGRTFILLIFTQTLSGLVVYHGVCRSWEVLGCIAHLIKGGIFFF	55800
VVDHCVSRFSGFTFLFFVLFTAFYMWQIISFVLGVLRLVDMYNFYTHLLKIPD	54300
VVDYHTTYRRMIIVCLQSVLGLFRDMVEQFLGVIYTIYVLIRVFVVFPVWVIY	61200
VVEALRLPLKPIQLLSKLFLRRLYEQDQLEEIRGIAKQIKIELYLLVALNVLL	54000
VVENHKREVQYARYHCLKSWRLTLDVCLKRAFHLVPTVGRHELLISMLQAIIG	37300
VVFNQIWIYFFIYTMIFICLILVAFYTVLLVLLIHPKKIPHNTRTVLNVYRAR	66100
VVFVLIIFSLSILPSAPLVKTGALVVLASLLLMPITQQFFLPSLPIWTYLLYF	47500

Sequence	transcriptional activation domain activity
VVGGQQKFGTKMVVESDKKCRLILLPRFAETGILVLVNMRTLAVKCVKFGTRG	19300
VVGISCCFLCMIVILLYFFPLLLFSSLRPLIYLVELLPLTCHIALGGSLYLTL	77600
VVHLLSPKRLDILWGVNPKGIHIFRMVLFISLLFSYLGRSGSLMLSIARIFTY	45900
VVKGDEVQIVRGSKKGAEGRVTQVYRKKWVIHVDRVERQKAKEQTVPVPVAAS	70900
VVLASSPSSQTTSSTSVVLIFGSDDKRVKEVGEGLKAKLDMRGGGKGTRWSGK	14200
VVLGWILGKECMTLYFDTFQIALLFVSVLLVNYLIQDGKSHWLEGVLLVCSYL	37400
VVLPCLNLVLAVRKYFVRYLMMPRYSTLQVFGEENAAGYRPMLFWEIEPWYVA	41800
VVLSVLCSLLNTTLKYNPASWRVPYDHVVFKDSKQILVTYCLQLLLVLILYPI	44500
VVLWHIVISLRFWFNFVSVVPALRWVYLSIYEIKVDYKNLIEYTLPQLCSLFI	54600
VVLYMLRFLGLMHIMLFSHIDQRCKDFAKVYLRGRIIRYTCPFFSRSSLHKIV	49400
VVNLLQSLHFGGLLNHKKRHYFWIIFGAIFFWEWIPQFPFPLLTAFSVICLVD	47400
VVNVLLSVFNGYDTGKSGIRCNPLPNSFIPLIMTAMLLSMLTFLLVTTIACYV	38300
VVPCLALVKKKSFFFVFFLLFLFLCTHLTACIAFSPFLFLFLFVFLFVALFSV	40400
VVPYYCLFVFFPFYSCVLVRLAGNCHSCLIIALFFLILISGRSFFFFFFFFFF	14200
VVSFFVILGYMLLYRMRSTQLWSNRSTSSFGERPKPPIVAYRSIIIRIGLRKL	67300
VVTLHEILKCLGHLRSLVLTAKAFGCLQAIRMILEHFLLVWRKTITHCLRYSE	60400
VVTRWILFIVPMLGIVWIPGILSLTTFPHATVWGVKLIWWSIWLSVVWGGWWV	38300
VVVILRMWAFCYRGSGHAHEMLHLLHNLICVWTKEFQYIVLQNWLANPQGKPK	58500
VVVKVALLLRWLVMVYDVLDGHTMLSQLYGLLFNCLDMISLRTHICHLLSLLT	27000
VVVYCKSIDLLFRVALYLWRSPAVIAWISFAARQARVIVATVVFGLGINRADI	69400
